Assay results: patent US20260265403A1 (TJ BIOPHARMA SHANGHAI, published 2026)

T1: human CD24 on cells (human, UniProt P25063 27-59)
T1 chain (looked up): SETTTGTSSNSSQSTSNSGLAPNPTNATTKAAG


Molecular target: T1, human CD24 on cells
Test: cell-based or functional assay

| Binder | EC50 of Phagocytosis assay, IgG4, Kappa; HEK293-CD24 [µg/mL] | EC50 of Phagocytosis assay, IgG4, Kappa; MCF-7 [µg/mL] | EC50 of Phagocytosis assay, IgG4, Kappa; NALM6 [µg/mL] | EC50 of Phagocytosis assay, IgG4, Kappa; OVCAR3 [µg/mL] | EC50 of Phagocytosis assay, IgG1, Kappa; HEK293-CD24 [µg/mL] | EC50 of Phagocytosis assay, IgG1, Kappa; MCF-7 [µg/mL] | EC50 of Phagocytosis assay, IgG1, Kappa; NALM6 [µg/mL] | EC50 of Phagocytosis assay, IgG1, Kappa; OVCAR3 [µg/mL] |
| --- | --- | --- | --- | --- | --- | --- | --- | --- |
| 76-F8C6, IgG4, Kappa (antibody, V domains shown) VH: EVKLEESGGGLVQPGGSMKLSCVASGFTFTNSWMNWVRQSPERGLDWVAQIQLKSDNYATRYVESVKGRFTISRDDSKNSVYLQMNNLRAEDTGIYYCTTGTDYWSQGTTLTVSS VL: not shown | 0.4 | 2.44 | 1.62 | 0.27 | – | – | – | – |
| 66-D1B10, IgG4, Kappa (antibody, V domains shown) VH: EVRLEESGGGFVQPGGSMKLSCVASGLTFPNHWMNWVRQSPERGLAWVAQIQLKSDNYATRYVESVKGRFTISRDDSESTVYLQMNNLRAEDTGIYYCTTGTDYWGQGTTLTVSS VL: not shown | 3.09 | 2.26 | 6.28 | 5.77 | – | – | – | – |
| 80-F10A6, IgG1, Kappa (antibody, V domains shown) VH: EVQLQQSGPVLVNPGASVKISCKASGYSFTGYYMNWVKQSPEKSLEWIGEVNPITGDTTYSQNFKAKTTLTVDRSSSTAYMQLKSLTSEDSAVYYCTRRDYGTSLDYWGQGTTLTVSS VL: DVQITQSPSYLAASPGETITIHCRASKSISRYLAWYQEKPGKINTLLIYAGSTLHLGIPSRFSGSGSGTDFTLTISSLELEDFAMYYCQQHNEYPITFGAGTKLELK | – | – | – | – | 0.39 | 0.57 | 0.46 | 2.23 |
| 90-D11B6, IgG1, Kappa (antibody, V domains shown) VH: EVQLQQSGPELVKPGASVRISCKASGYSFTGYYMNWVKQSPEKNLEWIGEINPITGGSTYNQKFVAKATLTVDRSSSTAYMQLKSLTSEDSAVYYCTRRDYDTSLDYWGQGTTLTVSS VL: DVQITQSPSYLAASPGETITINCRASKSISKYLAWYQEKPGKTIKLLIYAGSTLQSGIPSRFSGSGYGTDFTLTISSLEPEDFAMYYCQQHNEYPLTFGAGTKLELK | – | – | – | – | 1.31 | 1 | 1.19 | 0.59 |
| 90-D11B6, IgG4, Kappa (antibody, V domains shown) VH: EVQLQQSGPELVKPGASVRISCKASGYSFTGYYMNWVKQSPEKNLEWIGEINPITGGSTYNQKFVAKATLTVDRSSSTAYMQLKSLTSEDSAVYYCTRRDYDTSLDYWGQGTTLTVSS VL: DVQITQSPSYLAASPGETITINCRASKSISKYLAWYQEKPGKTIKLLIYAGSTLQSGIPSRFSGSGYGTDFTLTISSLEPEDFAMYYCQQHNEYPLTFGAGTKLELK | 2.78 | 1.94 | 1.31 | 0.86 | – | – | – | – |
| 63-B10B9, IgG4, Kappa (antibody, V domains shown) VH: EVQLQQSGPELVKPGASVKISCKASGYSFTGYYMNWVKQSPEKSLEWIGEINPITGGTTYNQKFRAKATLTVDRSSSTAYMQLKSLTSEDSAVYYCTKRDYDTSLDYWGQGTTLIVSS VL: DVQITQSPSYLAAFPGETITINCRASKSIKKYLAWYQEKPGKTNNLLIYSGSTLQSGIPSRFSGSGTGTDFTLTISSLEPEDFAMYYCQQHNEYPLTFGAGTKLELK | 1.14 | 17.1 | 6.16 | 9.85 | – | – | – | – |
| 63-B10B9, IgG1, Kappa (antibody, V domains shown) VH: EVQLQQSGPELVKPGASVKISCKASGYSFTGYYMNWVKQSPEKSLEWIGEINPITGGTTYNQKFRAKATLTVDRSSSTAYMQLKSLTSEDSAVYYCTKRDYDTSLDYWGQGTTLIVSS VL: DVQITQSPSYLAAFPGETITINCRASKSIKKYLAWYQEKPGKTNNLLIYSGSTLQSGIPSRFSGSGTGTDFTLTISSLEPEDFAMYYCQQHNEYPLTFGAGTKLELK | – | – | – | – | 7.02 | 1.06 | 1.91 | 0.56 |
| 45-H1E4, IgG4, Kappa (antibody, V domains shown) VH: QIQLVQSGPELKKPGETVKISCKASGYTFTTYGMSWMKQAPGKGLKWMGWINTYSGVPAYADDFKGRFAFSLDTSASTAYLQINNLKNEDTATYFCARSGYPWSPHSYSTDYWGQGISVTVSS VL: DVLLTQTPLSLPVSLGDQASISCKSSQSIVHSNGNTYLEWYLQKPGQSPKRLIYKVSNRFSGVPDRFSGSGSGTDFTLKISRVEAEDLGVYYCFQGSHVPWTFGGGTKLEIK | 0.9 | 7 | 5.36 | 3.35 | – | – | – | – |
| 75-H8B9, IgG4, Kappa (antibody, V domains shown) VH: EVNLEESGGGLVQPGGSRQLSCVASGLTFSKHWMNWVRQSPDKGLEWVAQIQLKSDNYAIRYVDSVKGRFTISRDDSENTVYLQMNNLRAEDTGIYYCTTGTDYWGQGTTLTVSS VL: not shown | 0.4 | 0.76 | 0.84 | 0.24 | – | – | – | – |
| 75-H8B9, IgG1, Kappa (antibody, V domains shown) VH: EVNLEESGGGLVQPGGSRQLSCVASGLTFSKHWMNWVRQSPDKGLEWVAQIQLKSDNYAIRYVDSVKGRFTISRDDSENTVYLQMNNLRAEDTGIYYCTTGTDYWGQGTTLTVSS VL: not shown | – | – | – | – | 0.08 | 0.44 | 1.16 | 0.14 |
| 67-H2E7, IgG1, Kappa (antibody, V domains shown) VH: EVQLQQSGPELVKPGASVKISCKASGYEFTGYHMNWVKQSPEKSLEWIGEINPITSDKTFNQKFKAKATLTVDRSSTTAYMHLKSLTSEDSAVYYCARRDYDTSLDYWGQGTTLTVSS VL: DVQITQSPSYLAASPGETITIYCRASKSISKYLAWYQEKPEKTNRLLIYAGSTLQSGIPSRFRGSGSGKDFTLTVSGLEPEDFAMYYCQQHNEYPLTFGAGTKLDLK | – | – | – | – | 0.42 | 0.45 | 0.22 | 8.46 |
| 89-E8C12 (4428), IgG1, Kappa (antibody, V domains shown) VH: EVQLQQSGPELVKPGASVKISCKASGYDFTGYYMNWMKQSPEKSLEWIGEINPITSHNTFNQKFKAKATLTVDRSSSTAYMHLKSLTSEDSAVYYCARRDYGTSLDYWGQGTTLTVSS VL: DVQITQSPSYLAASPGETITIYCRASKSISKYLAWYQEKPEKTIRLLIYAGSTLQSGIPSRFRGSGSGTDFTLTVSGLEPEDFAMYYCQQHNEYPLTFGAGTKLELK | – | – | – | – | 0.2 | 0.33 | 0.23 | 0.15 |
| 79-E3H3, IgG4, Kappa (antibody, V domains shown) VH: EVQLQQSGPELVKPGASVKISCKASGYEFTGYHMNWVKQSPEKSLEWIGEINPITSDKTFNQKFKAKATLTVDRSSSTAYMHLKSLTSEDSAVYYCARRDYDTSLDYWGQGTTLTVSS VL: DVQITQSPSYLAASPGETITIYCRASKSISKYLAWYQEKPEKTNRLLIYAGSTLQSGIPSRFRGSGSGKDFTLTVSGLEPEDFAMYYCQQHNEYPLTFGAGTKLELK | 0.58 | 1.42 | 0.72 | 0.42 | – | – | – | – |
| 85-D5A10 (4434), IgG1, Kappa (antibody, V domains shown) VH: EVQLQQSGPELVKPGASVKISCKASGYEFTGYHMNWVKQSPEKSLEWIGEINPITSDKTFNQKFKAKATLTVDRSSSTAYMHLKSLTSDDSAVYYCARRDYGTSLDYWGQGTTLTVSS VL: DVQITQSPSYLAASPGETITIYCRASKSISKYLAWYQEKPEKTIRLLIYAGSTLQSGIPSRFRGSGSGKDFTLTVSGLEPEDFAMYYCQQHNEYPITFGAGTKLELI | – | – | – | – | 6.76 | 0.42 | 0.32 | 0.13 |
| 67-H2E7, IgG4, Kappa (antibody, V domains shown) VH: EVQLQQSGPELVKPGASVKISCKASGYEFTGYHMNWVKQSPEKSLEWIGEINPITSDKTFNQKFKAKATLTVDRSSTTAYMHLKSLTSEDSAVYYCARRDYDTSLDYWGQGTTLTVSS VL: DVQITQSPSYLAASPGETITIYCRASKSISKYLAWYQEKPEKTNRLLIYAGSTLQSGIPSRFRGSGSGKDFTLTVSGLEPEDFAMYYCQQHNEYPLTFGAGTKLDLK | 0.51 | 1.28 | 0.68 | 0.71 | – | – | – | – |
| 79-E3H3, IgG1, Kappa (antibody, V domains shown) VH: EVQLQQSGPELVKPGASVKISCKASGYEFTGYHMNWVKQSPEKSLEWIGEINPITSDKTFNQKFKAKATLTVDRSSSTAYMHLKSLTSEDSAVYYCARRDYDTSLDYWGQGTTLTVSS VL: DVQITQSPSYLAASPGETITIYCRASKSISKYLAWYQEKPEKTNRLLIYAGSTLQSGIPSRFRGSGSGKDFTLTVSGLEPEDFAMYYCQQHNEYPLTFGAGTKLELK | – | – | – | – | 0.19 | 0.52 | 0.49 | 0.44 |
| 59-G9D7, IgG4, Kappa (antibody, V domains shown) VH: QVQLQQPGADLVKPGASVKLSCKASGYTVTTYWMHWVRQRPGRGLEWIGRIDPNSGETKYSEKFKNKATLTVDRPSSTAYMQLSSLTFEDSAVYFCAIYYYLNNFLFDYWGQGTTLTVSS VL: ENVLTQSPAIMSASPGEKVTMTCRASSSVSSSYLHWYQKKSGASPKLWIYSTSNLASGVPARFSGSGSGTSYSLTISSVEAEDAATYYCQQYSGYPLTFGAGTKLELK | 2.08 | 0.19 | 6.57 | 1.26 | – | – | – | – |
| 62-F7E9, IgG4, Kappa (antibody, V domains shown) VH: QVQLQQPGAELVKPGASVKLSCKASGYTSTSYWLHWVKQRPGRGLEWIGRIDPNSGETKFNEKFKSQATLTVDKPSSTAYMQLNSLTSEDSAVYYCALYYYGSILFDYWGQGTTLTVSS VL: ENVLTQSPAIMSASPGEKVTMTCRTSSIISSGFLHWYQQKSGASPKLWIYSTSNLASGVPARFSGSGSGTSYSLTISSVEAEDAATYYCQQYSGHPLTFGAGTKLELK | 10.5 | 0.21 | 0.01 | 1.41 | – | – | – | – |
